Test [1] deals with Cul3N (human Cul3 N-terminal domain, residues 1–388, I342R L346D) (human, UniProt Q13618 1-388, I342R | L346D). As to the kind of experiment: ITC. (In ITC the heat of successive injections is recorded.)
Test [2] addresses Cul3NΔ22 (human Cul3 N-terminal domain, residues 23–388, I342R L346D) (human, UniProt Q13618 23-388, I342R | L346D). Nature of the test: ITC.

The values that follow come from publication PMC6484134 (2019).

Sequence of Cul3N (human Cul3 N-terminal domain, residues 1–388, I342R L346D) (Q13618 1-388 I342R/L346D): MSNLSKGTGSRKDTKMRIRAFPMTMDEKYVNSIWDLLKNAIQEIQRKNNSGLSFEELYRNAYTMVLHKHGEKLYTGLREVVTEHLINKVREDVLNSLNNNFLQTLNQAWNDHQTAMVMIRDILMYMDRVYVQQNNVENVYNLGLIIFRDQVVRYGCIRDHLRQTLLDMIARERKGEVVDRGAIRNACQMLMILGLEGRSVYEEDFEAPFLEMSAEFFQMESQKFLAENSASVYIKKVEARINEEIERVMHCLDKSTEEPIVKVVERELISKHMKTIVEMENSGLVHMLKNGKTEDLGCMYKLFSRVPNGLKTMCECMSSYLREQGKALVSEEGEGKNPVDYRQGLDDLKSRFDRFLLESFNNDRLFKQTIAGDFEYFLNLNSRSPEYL
Sequence of Cul3NΔ22 (human Cul3 N-terminal domain, residues 23–388, I342R L346D) (Q13618 23-388 I342R/L346D): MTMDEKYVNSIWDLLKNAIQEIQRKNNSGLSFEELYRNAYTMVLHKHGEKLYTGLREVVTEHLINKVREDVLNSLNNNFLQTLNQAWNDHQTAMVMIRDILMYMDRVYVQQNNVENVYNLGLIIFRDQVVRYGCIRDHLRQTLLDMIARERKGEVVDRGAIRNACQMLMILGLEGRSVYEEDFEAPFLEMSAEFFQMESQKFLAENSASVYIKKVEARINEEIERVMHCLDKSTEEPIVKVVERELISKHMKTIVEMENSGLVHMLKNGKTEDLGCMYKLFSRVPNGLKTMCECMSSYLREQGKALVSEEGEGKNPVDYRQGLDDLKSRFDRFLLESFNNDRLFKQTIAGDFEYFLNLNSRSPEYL

B1: KLHL3-BB (human KLHL3 BTB-BACK domain, residues 24–276) (domain or fragment)
chain: RTITVNPAHMGKAFKVMNELRSKQLLCDVMIVAEDVEIEAHRVVLAACSPYFCAMFTGDMSESKAKKIEIKDVDGQTLSKLIDYIYTAEIEVTEENVQVLLPAASLLQLMDVRQNCCDFLQSQLHPTNCLGIRAFADVHTCTDLLQQANAYAEQHFPEVMLGEEFLSLSLDQVCSLISSDKLTVSSEEKVFEAVISWINYEKETRLEHMAKLMEHVRLPLLPRDYLVQTVEEEALIKNNNTCKDFLIEAMKYH
By Kd is commonly meant the equilibrium constant for the complex coming apart. As to B1, the Kd in test [1] came out at 22.9 nM; in test [2], 36.2 nM.
